Measurements reported in the RNAGym collection of RNA variant scans (doi:10.7554/elife.80360).

B1: Hairpin Ribozyme (parent)
chain: GUCCUCUUUCACGUGCGCGUGAAAGAGAGAAGUGAACCAGAGAAACACACGUUGUGGUAUAUUACCUGGUA

Variants of: B1
Experiment: self-cleavage, relative activity (ratio to wild type); higher = more cleavage; co-transcriptional

| Variant | self-cleavage |
| --- | --- |
| GUCCUCUUUCACGUGCGCGUGAAAGAGAGAAGUGACCCAGAGAAACACACGUUGUGGUAUCUUACCUGGUA | 0.116 |
| GUCCUCUUUCACGUGCGCGUGAAAGAGAGAAGUGACCCAGAGAAACACACGAUGUGGUAUAUUACCUGGUA | 0.768 |
| GUCCUCUUUCACGUGCGCGUGAAAGAGAGAAGUGACACAGAGAAACACACGUUGUGGUAUAUUACCUGGUA | 0.185 |
| GUCCUCUUUCACGUGCGCGUGAAAGAGAGAAGUGACUCAGAGAAACACACGUUGUGGUAUAUUACCUGGUA | 0.148 |
| GUCCUCUUUCACGUGCGCGUGAAAGAGAGAAGUGACCCAGAGAAACACACGUUGUGGUAUAUUAUCUGGUA | 0.118 |
| GUCCUCUUUCACGUGCGCGUGAAAGAGAGAAGUGUACCAGAGAAACACACGUUGUGUUAUAUUACCUGGUA | 0.311 |
| GUCCUCUUUCACGUGCGCGUGAAAGAGAGAAGUGUACCAGAGAAACACACGUUGUGCUAUAUUACCUGGUA | 0.116 |
| GUCCUCUUUCACGUGCGCGUGAAAGAGAGAAGUGUACCAGAGAAACACACGUUGUUGUAUAUUACCUGGUA | 0.221 |
| GUCCUCUUUCACGUGCGCGUGAAAGAGAGAAGUGUACCAGAGAAACACACGUUGUAGUAUAUUACCUGGUA | 0.143 |
| GUCCUCUUUCACGUGCGCGUGAAAGAGAGAAGUGUACCAGAGAAACACACGUUGUGGUAUAUUUCCUGGUA | 0.178 |
| GUCCUCUUUCACGUGCGCGUGAAAGAGAGAAGUGUACCAGAGAAACACACGUUGUGGUAUAUUGCCUGGUA | 0.465 |
| GUCCUCUUUCACGUGCGCGUGAAAGAGAGAAGUGUACCAGAGAAACACACGUUGUGGUAUAUUACAUGGUA | 0.154 |
| GUCCUCUUUCACGUGCGCGUGAAAGAGAGAAGUGUACCAGAGAACCACACGUUGUGGUAUAUUACCUGGUA | 0.112 |
| GUCCUCUUUCACGUGCGCGUGAAAGAGAGAAGUGUACCAGAGAAGCACACGUUGUGGUAUAUUACCUGGUA | 0.0965 |
| GUCCUCUUUCACGUGCGCGUGAAAGAGAGAAGUGUACCAGAGAAAUACACGUUGUGGUAUAUUACCUGGUA | 0.143 |
| GUCCUCUUUCACGUGCGCGUGAAAGAGAGAAGUGUACCAGAGAAAAACACGUUGUGGUAUAUUACCUGGUA | 0.16 |
| GUCCUCUUUCACGUGCGCGUGAAAGAGAGAAGUGACCCAGAUAAACACACGUUGUGGUAUAUUACCUGGUA | 0.116 |
| GUCCUCUUUCACGUGCGCGUGAAAGAGAGAAGUGACCCAGAAAAACACACGUUGUGGUAUAUUACCUGGUA | 0.0682 |
| GUCCUCUUUCACGUGCGCGUGAAAGAGAGAAGUGUACCAGAGAAACACACGUUGUGGUAGAUUACCUGGUA | 0.343 |

| Variant | self-cleavage |
| --- | --- |
| GUCCUCUUUCACGUGCGCGUGAAAGAGAGAAGUGUGCCAGAGAAACACACGUUGUGGUAUAUUACCUGGUA | 0.901 |
| GUCCUCUUUCACGUGCGCGUGAAAGAGAGAAGUGUCCCAGAGAAACACACGUUGUGGUAUAUUACCUGGUA | 0.264 |
| GUCCUCUUUCACGUGCGCGUGAAAGAGAGAAGUGACCCAAAGAAACACACGUUGUGGUAUAUUACCUGGUA | 0.162 |
| GUCCUCUUUCACGUGCGCGUGAAAGAGAGAAGUGGACCAGAGAAACACACGUUGUGGUAUAUGACCUGGUA | 0.221 |
| GUCCUCUUUCACGUGCGCGUGAAAGAGAGAAGUGACCCAGUGAAACACACGUUGUGGUAUAUUACCUGGUA | 0.92 |
| GUCCUCUUUCACGUGCGCGUGAAAGAGAGAAGUGACCCAGCGAAACACACGUUGUGGUAUAUUACCUGGUA | 0.401 |
| GUCCUCUUUCACGUGCGCGUGAAAGAGAGAAGUGUACCAGGGAAACACACGUUGUGGUAUAUUACCUGGUA | 0.599 |
| GUCCUCUUUCACGUGCGCGUGAAAGAGAGAAGUGUACCAGCGAAACACACGUUGUGGUAUAUUACCUGGUA | 0.957 |
| GUCCUCUUUCACGUGCGCGUGAAAGAGAGAAGUGUACCAGAGAAACCCACGUUGUGGUAUAUUACCUGGUA | 0.258 |
| GUCCUCUUUCACGUGCGCGUGAAAGAGAGAAGUGUACCAGAGUAACACACGUUGUGGUAUAUUACCUGGUA | 0.0408 |
| GUCCUCUUUCACGUGCGCGUGAAAGAGAGAAGUGACCCAGAGAAACAUACGUUGUGGUAUAUUACCUGGUA | 0.0598 |
| GUCCUCUUUCACGUGCGCGUGAAAGAGAGAAGUGUACGAGAGAAACACACGUUGUGGUAUAUUACCUGGUA | 0.235 |
| GUCCUCUUUCACGUGCGCGUGAAAGAGAGAAGUGUACCAGAGAAACACACGUUGUGGUAUAUUACCUGGUG | 0.962 |
| GUCCUCUUUCACGUGCGCGUGAAAGAGAGAAGUGUACCAGAGAAACACACGUUGUGGUAUAUUACCUGGUU | 0.978 |
| GUCCUCUUUCACGUGCGCGUGAAAGAGAGAAGUGACCCAGAGAAACACACGUUGUGGUAUAUUACCUGGUU | 0.654 |
| GUCCUCUUUCACGUGCGCGUGAAAGAGAGAAGUGACCCAGAGAAACACACGUUGUGGUAUAUUACCUGGUC | 0.975 |
| GUCCUCUUUCACGUGCGCGUGAAAGAGAGAAGUGUACCAGAGAAACACACGUUGGGGUAUAUUACCUGGUA | 0.281 |
| GUCCUCUUUCACGUGCGCGUGAAAGAGAGAAGUGUACCAGAGAAACACACGUUGCGGUAUAUUACCUGGUA | 0.274 |
| GUCCUCUUUCACGUGCGCGUGAAAGAGAGAAGUGUACCAGAGAAACACACGUAGUGGUAUAUUACCUGGUA | 0.785 |
